Assay results taken from patent publication US5352772A, “75 Kilodalton interleukin-2 receptor proteins and their uses” (The Trustees of Dartmouth College, priority 1986, dated 1994).

Assay: IL-2 binding affinity of the separate receptor chains
Parameters: species or system human
Conditions: read-out: Kd of the chain for IL-2; each chain expressed separately
Protocol: Monoclonal antibodies reactive with the Tac epitope were made available by Dr. Ellis Reinherz (1HT4; IgG2a Dana-Farber Cancer Center, Boston Mass.). IL-2 and anti-Tac ware radioiodinated using lactoperoxidase-glucose oxidase (Enzymobeads, Biorad, Richmond, Calif.) according to the manufacturer's instructions. The specific activity of anti-Tac was 5.3×10^4 CPM/pmole. […] Binding of both ligands to whole cells was performed, as described in Robb et al., Vol 154 J. Exp. Med., p. […] After 20-min incubation at 37° C., the tubes were centrifuged (8,500×g, 80s), the tips of the tubes containing the cell pellet were severed and the cell-bound and free radioactivity were determined by solid scintillation counting. The calculated values for the number of binding sites per cell were derived by Scatchard analysis of equilibrium binding data after subtraction of nonspecific binding determined in the presence of 150-fold molar excess of unlabeled ligand. […]
Particularly convincing in this regard is the finding that the chain present in limiting amounts dictates the number of high affinity receptors, and either α or β chains can function in this role. […] In contrast, YT cells express […] in excess, and high affinity receptors are detected only when the cells are induced to express β chains.

Kd: 10 nM
B1: β chain: previously isolated 55,000 dalton IL-2 receptor protein bearing the Tac epitope (protein, UniProt P01589 22-272, looked up)
Interleukin-2 receptor …: ELCDDDPPEIPHATFKAMAYKEGTMLNCECKRGFRRIKSGSLYMLCTGNSSHSSWDNQCQCTSSATRNTTKQVTPQPEEQKERKTTEMQSPMQPVDQASLPGHCREPPPWENEATERIYHFVVGQMVYYQCVQGYRALHRGPAESVCKMTHGKTRWTQPQLICTGEMETSQFPGEEKPQASPEGRPESETSCLVTTTDFQIQTEMAATMETSIFTTEYQVAVAGCVFLLISVLLLSGLTWQRRQRKSRRTI
